Assay results: patent US20060263802A1 (CRUCELL HOLLAND B V, published 2006)

How the values were obtained:
Experiment in all cases: PEPSCAN ELISA, looped peptide, antibody 10 µg/ml
[1] = molecular target: looped/cyclic peptide … (rabies virus strain ERA)
[2] = molecular target: looped/cyclic peptide … (rabies virus strain ERA); remark: listed apart in the source
[3] = molecular target: looped/cyclic peptide … (rabies virus strain ERA); remark: listed apart in the source
[4] = molecular target: looped/cyclic peptide … (rabies virus strain ERA); remark: listed apart in the source
[5] = molecular target: looped/cyclic peptide … (rabies virus strain ERA); remark: listed apart in the source
[6] = molecular target: looped/cyclic peptide … (rabies virus strain ERA); remark: listed apart in the source
[7] = molecular target: looped/cyclic peptide … (rabies virus strain ERA); remark: listed apart in the source
[8] = molecular target: looped/cyclic peptide … (rabies virus strain ERA); remark: listed apart in the source
[9] = molecular target: looped/cyclic peptide … (rabies virus strain ERA); remark: listed apart in the source
[10] = molecular target: looped/cyclic peptide … (rabies virus strain ERA); remark: listed apart in the source
[11] = molecular target: looped/cyclic peptide … (rabies virus strain ERA); remark: listed apart in the source
[12] = molecular target: looped/cyclic peptide … (rabies virus strain ERA); remark: listed apart in the source
[13] = molecular target: looped/cyclic peptide … (rabies virus strain ERA); remark: listed apart in the source
[14] = molecular target: looped/cyclic peptide … (rabies virus strain ERA); remark: listed apart in the source
[15] = molecular target: looped/cyclic peptide … (rabies virus strain ERA); remark: listed apart in the source
[16] = molecular target: looped/cyclic peptide … (rabies virus strain ERA); remark: listed apart in the source
[17] = molecular target: looped/cyclic peptide … (rabies virus strain ERA); remark: listed apart in the source
[18] = molecular target: looped/cyclic peptide … (rabies virus strain ERA); remark: listed apart in the source
[19] = molecular target: looped/cyclic peptide … (rabies virus strain ERA); remark: listed apart in the source
[20] = molecular target: looped/cyclic peptide … (rabies virus strain ERA); remark: listed apart in the source
[21] = molecular target: looped/cyclic peptide … (rabies virus strain ERA); remark: listed apart in the source
[22] = molecular target: looped/cyclic peptide … (rabies virus strain ERA); remark: listed apart in the source
[23] = molecular target: looped/cyclic peptide … (rabies virus strain ERA); remark: listed apart in the source
[24] = molecular target: looped/cyclic peptide … (rabies virus strain ERA); remark: listed apart in the source
[25] = molecular target: looped/cyclic peptide … (rabies virus strain ERA); remark: listed apart in the source
[26] = molecular target: looped/cyclic peptide … (rabies virus strain ERA); remark: listed apart in the source
[27] = molecular target: looped/cyclic peptide … (rabies virus strain ERA); remark: listed apart in the source
[28] = molecular target: looped/cyclic peptide … (rabies virus strain ERA); remark: listed apart in the source
[29] = molecular target: looped/cyclic peptide … (rabies virus strain ERA); remark: listed apart in the source
[30] = molecular target: looped/cyclic peptide … (rabies virus strain ERA); remark: listed apart in the source
[31] = molecular target: looped/cyclic peptide … (rabies virus strain ERA); remark: listed apart in the source
[32] = molecular target: looped/cyclic peptide … (rabies virus strain ERA); remark: listed apart in the source
[33] = molecular target: looped/cyclic peptide … (rabies virus strain ERA); remark: listed apart in the source
[34] = molecular target: looped/cyclic peptide … (rabies virus strain ERA); remark: listed apart in the source
[35] = molecular target: looped/cyclic peptide … (rabies virus strain ERA); remark: listed apart in the source
[36] = molecular target: looped/cyclic peptide … (rabies virus strain ERA); remark: listed apart in the source
[37] = molecular target: looped/cyclic peptide … (rabies virus strain ERA); remark: listed apart in the source
[38] = molecular target: looped/cyclic peptide … (rabies virus strain ERA); remark: listed apart in the source
[39] = molecular target: looped/cyclic peptide … (rabies virus strain ERA); remark: listed apart in the source
[40] = molecular target: looped/cyclic peptide … (rabies virus strain ERA); remark: listed apart in the source
[41] = molecular target: looped/cyclic peptide […] (rabies virus strain ERA)
[42] = molecular target: looped/cyclic peptide … (rabies virus strain ERA); remark: listed apart in the source
[43] = molecular target: looped/cyclic peptide … (rabies virus strain ERA); remark: listed apart in the source
[44] = molecular target: looped/cyclic peptide … (rabies virus strain ERA); remark: listed apart in the source
[45] = molecular target: looped/cyclic peptide … (rabies virus strain ERA); remark: listed apart in the source
[46] = molecular target: looped/cyclic peptide … (rabies virus strain ERA); remark: listed apart in the source
[47] = molecular target: looped/cyclic peptide … (rabies virus strain ERA); remark: listed apart in the source
[48] = molecular target: looped/cyclic peptide … (rabies virus strain ERA); remark: listed apart in the source
[49] = molecular target: looped/cyclic peptide … (rabies virus strain ERA); remark: listed apart in the source
[50] = molecular target: looped/cyclic peptide … (rabies virus strain ERA); remark: listed apart in the source
[51] = molecular target: looped/cyclic peptide […] (rabies virus strain ERA); remark: listed apart in the source
[52] = molecular target: looped/cyclic peptide … (rabies virus strain ERA); remark: listed apart in the source
[53] = molecular target: looped/cyclic peptide … (rabies virus strain ERA); remark: listed apart in the source
[54] = molecular target: looped/cyclic peptide … (rabies virus strain ERA); remark: listed apart in the source
[55] = molecular target: looped/cyclic peptide … (rabies virus strain ERA); remark: listed apart in the source
[56] = molecular target: looped/cyclic peptide … (rabies virus strain ERA); remark: listed apart in the source
[57] = molecular target: looped/cyclic peptide … (rabies virus strain ERA); remark: listed apart in the source
[58] = molecular target: looped/cyclic peptide … (rabies virus strain ERA); remark: listed apart in the source
[59] = molecular target: looped/cyclic peptide … (rabies virus strain ERA); remark: listed apart in the source
[60] = molecular target: looped/cyclic peptide … (rabies virus strain ERA); remark: listed apart in the source
[61] = molecular target: looped/cyclic peptide … (rabies virus strain ERA); remark: listed apart in the source
[62] = molecular target: looped/cyclic peptide … (rabies virus strain ERA); remark: listed apart in the source
[63] = molecular target: looped/cyclic peptide … (rabies virus strain ERA); remark: listed apart in the source
[64] = molecular target: looped/cyclic peptide … (rabies virus strain ERA); remark: listed apart in the source
[65] = molecular target: looped/cyclic peptide … (rabies virus strain ERA); remark: listed apart in the source
[66] = molecular target: looped/cyclic peptide … (rabies virus strain ERA); remark: listed apart in the source
[67] = molecular target: looped/cyclic peptide … (rabies virus strain ERA); remark: listed apart in the source
[68] = molecular target: looped/cyclic peptide … (rabies virus strain ERA); remark: listed apart in the source
[69] = molecular target: looped/cyclic peptide … (rabies virus strain ERA); remark: listed apart in the source
[70] = molecular target: looped/cyclic peptide … (rabies virus strain ERA); remark: listed apart in the source
[71] = molecular target: looped/cyclic peptide … (rabies virus strain ERA); remark: listed apart in the source
[72] = molecular target: looped/cyclic peptide … (rabies virus strain ERA); remark: listed apart in the source
[73] = molecular target: looped/cyclic peptide … (rabies virus strain ERA); remark: listed apart in the source
[74] = molecular target: looped/cyclic peptide … (rabies virus strain ERA); remark: listed apart in the source
[75] = molecular target: looped/cyclic peptide … (rabies virus strain ERA); remark: listed apart in the source

B1: human monoclonal antibody CRJB (antibody, V domains shown)
VH: QITLKETGPTLVKPTQTLTLTCTFSGFSLSTSGVGVGWIRQPPGKALEWVTLIYWDDDKRYSPSLENRVTIRKDTSKNQVALTMTNMDPLDTGTYYCAHRQHISSFPWFDSWGQGTLVTVSS
VL: SYVLTQPPSVSVAPGKTARINCGGNNIEYRSVHWYQQKSGQAPVAVIYDNSDRPSGIPERFSGSKSGNTATLTISRVEAGDEADYYCQVWDISSDVVFGGGTKLTVLG
With B1 the OD value [1] was 59 OD, the OD value [2] was 74 OD and the OD value [3] was 98 OD. The OD value [4] was 68 OD, the OD value [5] was 92 OD and the OD value [6] was 78 OD. For the same binder, the OD value [7] was 57 OD, the OD value [8] was 63 OD and the OD value [9] was 83 OD. It also gave an OD value [10] of 70 OD, an OD value [11] of 60 OD and an OD value [12] of 74 OD. It also gave an OD value [13] of 82 OD, an OD value [14] of 74 OD and an OD value [15] of 62 OD. For the same binder, the OD value [16] was 54 OD, the OD value [17] was 111 OD and the OD value [18] was 77 OD. For the same binder, the OD value [19] was 72 OD, the OD value [20] was 74 OD and the OD value [21] was 72 OD. For the same binder, the OD value [22] was 80 OD, the OD value [23] was 92 OD and the OD value [24] was 107 OD. It also gave an OD value [25] of 93 OD, an OD value [26] of 92 OD and an OD value [27] of 73 OD. For the same binder, the OD value [28] was 69 OD, the OD value [29] was 60 OD and the OD value [30] was 49 OD. It also gave an OD value [31] of 77 OD, an OD value [32] of 64 OD and an OD value [33] of 90 OD. The OD value [34] was 101 OD, the OD value [35] was 62 OD and the OD value [36] was 55 OD. The OD value [37] was 66 OD, the OD value [38] was 65 OD and the OD value [39] was 79 OD. The OD value [40] was 78 OD, the OD value [41] was 71 OD and the OD value [42] was 68 OD. The OD value [43] was 77 OD, the OD value [44] was 71 OD and the OD value [45] was 71 OD. For the same binder, the OD value [46] was 92 OD, the OD value [47] was 72 OD and the OD value [48] was 46 OD. For the same binder, the OD value [49] was 75 OD, the OD value [50] was 88 OD and the OD value [51] was 138 OD. The OD value [52] was 65 OD, the OD value [53] was 82 OD and the OD value [54] was 79 OD. For the same binder, the OD value [55] was 49 OD, the OD value [56] was 102 OD and the OD value [57] was 70 OD. The OD value [58] was 71 OD, the OD value [59] was 96 OD and the OD value [60] was 78 OD. It also gave an OD value [61] of 99 OD, an OD value [62] of 80 OD and an OD value [63] of 58 OD. The OD value [64] was 64 OD, the OD value [65] was 93 OD and the OD value [66] was 85 OD. The OD value [67] was 84 OD, the OD value [68] was 65 OD and the OD value [69] was 118 OD. For the same binder, the OD value [70] was 75 OD, the OD value [71] was 90 OD and the OD value [72] was 85 OD. It also gave an OD value [73] of 86 OD, an OD value [74] of 92 OD and an OD value [75] of 76 OD.
